The results in this text go back to patent US7125658B2, “Small protein that interacts with a ribonucleotide reductase subunit and uses thereof” (The Trustees of Columbia University in the City of New York, priority 1998, dated 2006).

Holding throughout (assay): BIAcore, immobilized Sml1p
For one assay, the target named is T1, bovine serum albumin (bovine, UniProt P02769 25-607).
T1 construct: Control; also called BSA

Assay [1] has as its target T2, Recombinant mouse ribonucleotide reductase R2 protein (mouse, UniProt P11157 1-390).
T2 construct: also called mouse R2 protein
T2 sequence (looked up): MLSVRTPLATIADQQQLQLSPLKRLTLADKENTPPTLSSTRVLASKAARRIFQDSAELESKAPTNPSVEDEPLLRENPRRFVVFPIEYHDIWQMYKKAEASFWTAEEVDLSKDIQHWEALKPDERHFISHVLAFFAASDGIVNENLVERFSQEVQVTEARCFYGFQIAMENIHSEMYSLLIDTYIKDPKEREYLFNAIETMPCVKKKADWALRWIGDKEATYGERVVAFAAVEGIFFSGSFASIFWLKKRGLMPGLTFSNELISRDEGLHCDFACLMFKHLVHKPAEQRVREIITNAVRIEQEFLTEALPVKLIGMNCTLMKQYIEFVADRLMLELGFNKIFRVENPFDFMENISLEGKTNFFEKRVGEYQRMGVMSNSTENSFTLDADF

The target of assay [2] is T3, Yeast Rnr2p/Rnr4p heterodimer (yeast (Saccharomyces cerevisiae), UniProt P09938 1-399; P49723 1-345).
T3 construct: Coexpressed and purified as a heterodimer; also called R2/R4 heterodimer
T3 sequence (looked up) 1: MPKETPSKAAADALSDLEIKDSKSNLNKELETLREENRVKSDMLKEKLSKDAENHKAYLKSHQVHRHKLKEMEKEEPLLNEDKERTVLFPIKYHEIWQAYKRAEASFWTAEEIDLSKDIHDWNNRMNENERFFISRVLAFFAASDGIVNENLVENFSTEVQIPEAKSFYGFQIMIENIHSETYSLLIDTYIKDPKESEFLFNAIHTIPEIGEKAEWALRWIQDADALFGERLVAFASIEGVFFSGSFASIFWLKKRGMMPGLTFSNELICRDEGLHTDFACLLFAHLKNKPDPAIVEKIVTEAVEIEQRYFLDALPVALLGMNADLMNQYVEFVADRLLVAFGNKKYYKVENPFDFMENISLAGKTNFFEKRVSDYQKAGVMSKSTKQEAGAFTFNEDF
T3 sequence (looked up) 2: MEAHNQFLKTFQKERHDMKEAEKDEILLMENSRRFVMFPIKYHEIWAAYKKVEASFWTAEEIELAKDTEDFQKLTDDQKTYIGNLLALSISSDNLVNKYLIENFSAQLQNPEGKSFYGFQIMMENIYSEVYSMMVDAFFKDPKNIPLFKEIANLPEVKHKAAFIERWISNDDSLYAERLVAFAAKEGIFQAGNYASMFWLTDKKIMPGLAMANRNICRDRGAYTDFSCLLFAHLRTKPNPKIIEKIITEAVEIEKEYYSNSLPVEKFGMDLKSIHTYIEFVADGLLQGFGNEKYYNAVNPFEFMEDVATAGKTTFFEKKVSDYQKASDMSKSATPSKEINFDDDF

T1 sequence (P02769 25-607 limits assumed): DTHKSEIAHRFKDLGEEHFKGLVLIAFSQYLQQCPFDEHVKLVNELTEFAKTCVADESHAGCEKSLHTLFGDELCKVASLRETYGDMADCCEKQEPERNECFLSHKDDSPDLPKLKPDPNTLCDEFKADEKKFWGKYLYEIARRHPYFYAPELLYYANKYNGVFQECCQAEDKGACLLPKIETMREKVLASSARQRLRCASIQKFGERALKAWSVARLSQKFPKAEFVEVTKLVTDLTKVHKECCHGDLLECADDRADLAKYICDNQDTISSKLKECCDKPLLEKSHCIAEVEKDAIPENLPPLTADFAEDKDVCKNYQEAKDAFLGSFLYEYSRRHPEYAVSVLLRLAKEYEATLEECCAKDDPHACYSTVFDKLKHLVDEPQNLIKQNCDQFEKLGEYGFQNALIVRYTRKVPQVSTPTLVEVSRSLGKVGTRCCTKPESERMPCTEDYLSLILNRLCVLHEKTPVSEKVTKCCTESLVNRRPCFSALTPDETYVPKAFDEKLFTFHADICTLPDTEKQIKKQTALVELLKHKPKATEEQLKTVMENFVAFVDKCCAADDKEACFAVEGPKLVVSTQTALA

B1: Recombinant yeast Sml1 protein (other)
chain: MQNSQDYFYAQNRCQQQQAPSTLRTVTMAEFRRVPLPPMAEVPMLSTQNSMGSSASASASSLEMWEKDLEERLNSIDHDMNNNKFGSGELKSMFNQGKVEEMDF
notes: Immobilized on the BIAcore chip in the biosensor experiments; also called YML058W product
As to B1, the figures for the binding result (in the assay with bovine serum albumin; in assay [1]; in assay [2]) were “no binding (tested: 0.1 mg/ml)”, “no binding” and “no binding (tested: 0.1 mg/ml)”, respectively.
